Measured values reported in patent US20120107932A1 (published 2012).

Each binder was assayed against PRRS virus (PRRSV) (assay: cell-based or functional assay).

Row | Binder | CPE caused by PRRSV on Marc-145 and PAM cells, blocker at 1 µg/well ('++' means CPE in 50% cells) [% cells with CPE]
1 | GAGDGSDEE [NMHC II-A artificial polypeptide (Seq ID No: 2)] | 50
2 | GAGDGSDEEVDGKA [NMHC II-A artificial polypeptide (Seq ID No: 3)] | 50
3 | KADGAEAKPAE [NMHC II-A artificial polypeptide (Seq ID No: 4)] | 50
